Patent US20220177594A1 (ZOETIS SERVICES, published 2022)

Biological target: T1, ANTIBODY EXPRESSION CONTROL
T1 construct: also called mouse anti-canine antibody (capture reagent of the expression control ELISA)
Assay: SPR Biacore, expression control
Procedure: The affinity with which candidate mAbs bind canine, feline, and human (SEQ ID NO: 122; Human_OSMR) (R&D Systems, Minneapolis, Minn.) OSMR was determined using surface plasmon resonance (SPR) on a Biacore system (Biacore Life Sciences (GE Healthcare), Uppsala, Sweden). To avoid affinity differences associated with differential surface preparation that can occur when immobilizing antibodies to surfaces; OSMR from each species was directly conjugated to individual surfaces. Immobilization was obtained by amine coupling 5 μg/mL OSMR using N-hydroxysuccinimide (NHS)/1-Ethyl-3-(3-dimethylaminopropyl) carbodiimide (EDC) chemistry. Chips were quenched with ethanolamine and the affinity with which all candidate mAbs bound to the immobilized OSMR was evaluated. All curves were fit to a 1:1 model. […] Results for affinity measurements are described herein.
Data from an ELISA represents an equilibrium state where the antibody is allowed to associate and dissociate over a one-hour period resulting in steady-state binding. Using Biacore, the target protein is immobilized to a surface and the antibody is passed over this surface in a mobile liquid phase. Protein-protein interaction is determined from changes in the surface resonance which allows for calculation of association (kₐ), disassociation (kd), and affinity constant (KD). While not wishing to be bound to one hypothesis we present data from ELISA and Biacore experiments, using the same preparation of antibody, that may result in agreement between the two methods with respect to binding but also may show contradictory results due to the nature of the binding kinetics and different assay dynamics. The data presented in Table A (in combination with experimental results from yeast display mutational analysis in Example 21) allow for the definition of a structure:function relationship to be defined between the anti-OSMR antibodies described here and their ability to bind and block IL-31 and OSM-mediated signaling through the OSMR receptor.

Binder | Kd | koff | kon
Mu_10F07_VL (SEQ ID NO: 41)_T97A (antibody, V domains shown) VH: DVKLVESGEGLVKPGGSLKLSCAASGFTFSSYAMSWVRQTPEKRLEWVTYISSGGDYFYYADTVKGRFTISRDNARNTLYLQMSSLKSEDTAMYYCTRDPITGTFAYWGQGTLVTVSA VL: DIQMTQTTSSLSASLGDRVTISCRASQDITNYLNWYQQKPDGTVKLLIYYTSTLHSGVPSRFSGSGSGTDFSLTISNLEQEDIATYFCQQGHMLPWAFGGGTKLEIKR | 0.805 nM | 8.07e-05 s⁻¹ | 100000 M⁻¹ s⁻¹
Mu_10F07_VL (SEQ ID NO: 41)_T53A (antibody, V domains shown) VH: DVKLVESGEGLVKPGGSLKLSCAASGFTFSSYAMSWVRQTPEKRLEWVTYISSGGDYFYYADTVKGRFTISRDNARNTLYLQMSSLKSEDTAMYYCTRDPITGTFAYWGQGTLVTVSA VL: DIQMTQTTSSLSASLGDRVTISCRASQDITNYLNWYQQKPDGTVKLLIYYTSALHSGVPSRFSGSGSGTDFSLTISNLEQEDIATYFCQQGHMLPWTFGGGTKLEIKR | 2.07 nM | 0.000275 s⁻¹ | 132000 M⁻¹ s⁻¹
Mu_10F07_VL (SEQ ID NO: 41)_Y50A (antibody, V domains shown) VH: DVKLVESGEGLVKPGGSLKLSCAASGFTFSSYAMSWVRQTPEKRLEWVTYISSGGDYFYYADTVKGRFTISRDNARNTLYLQMSSLKSEDTAMYYCTRDPITGTFAYWGQGTLVTVSA VL: DIQMTQTTSSLSASLGDRVTISCRASQDITNYLNWYQQKPDGTVKLLIYATSTLHSGVPSRFSGSGSGTDFSLTISNLEQEDIATYFCQQGHMLPWTFGGGTKLEIKR | 0.6 nM | 0.000105 s⁻¹ | 174000 M⁻¹ s⁻¹
Mu_10F07_VL (SEQ ID NO: 41)_W96A (antibody, V domains shown) VH: DVKLVESGEGLVKPGGSLKLSCAASGFTFSSYAMSWVRQTPEKRLEWVTYISSGGDYFYYADTVKGRFTISRDNARNTLYLQMSSLKSEDTAMYYCTRDPITGTFAYWGQGTLVTVSA VL: DIQMTQTTSSLSASLGDRVTISCRASQDITNYLNWYQQKPDGTVKLLIYYTSTLHSGVPSRFSGSGSGTDFSLTISNLEQEDIATYFCQQGHMLPATFGGGTKLEIKR | 0.884 nM | 9.49e-05 s⁻¹ | 107000 M⁻¹ s⁻¹
Mu_10F07_VH (SEQ ID NO: 39)_Y107A (antibody, V domains shown) VH: DVKLVESGEGLVKPGGSLKLSCAASGFTFSSYAMSWVRQTPEKRLEWVTYISSGGDYFYYADTVKGRFTISRDNARNTLYLQMSSLKSEDTAMYYCTRDPITGTFAAWGQGTLVTVSA VL: DIQMTQTTSSLSASLGDRVTISCRASQDITNYLNWYQQKPDGTVKLLIYYTSTLHSGVPSRFSGSGSGTDFSLTISNLEQEDIATYFCQQGHMLPWTFGGGTKLEIKR | 0.446 nM | 4.44e-05 s⁻¹ | 99500 M⁻¹ s⁻¹
Mu_10F07_VL (SEQ ID NO: 41)_L33A (antibody, V domains shown) VH: DVKLVESGEGLVKPGGSLKLSCAASGFTFSSYAMSWVRQTPEKRLEWVTYISSGGDYFYYADTVKGRFTISRDNARNTLYLQMSSLKSEDTAMYYCTRDPITGTFAYWGQGTLVTVSA VL: DIQMTQTTSSLSASLGDRVTISCRASQDITNYANWYQQKPDGTVKLLIYYTSTLHSGVPSRFSGSGSGTDFSLTISNLEQEDIATYFCQQGHMLPWTFGGGTKLEIKR | 0.812 nM | 8.43e-05 s⁻¹ | 104000 M⁻¹ s⁻¹
Mu_19F07_VH (SEQ ID NO: 47)_Y60A (antibody, V domains shown) VH: EVKLVESEGGLVQPGSSMKLSCTASGFTFSDYYMAWVRQVPEKGLEWVANINYDGSSTYALDSLKSRFIISRDNAKNILYLQMSSLKSEDTATYYCARGLTWDFDVWGTGTTVTVSS VL: DIVMTQSHKFMSPSVGDRVSITCKASQDVDTAVAWYQQKPGQSPKLLIYLASTRHTGVPDRFTGSGSGTDFTLTISNVQSEDLADYFCQQYSRFPLTFGAGTKLELKR | 4.06 nM | 0.00061 s⁻¹ | 150000 M⁻¹ s⁻¹
Mu_19F07_VH (SEQ ID NO: 47)_S56A (antibody, V domains shown) VH: EVKLVESEGGLVQPGSSMKLSCTASGFTFSDYYMAWVRQVPEKGLEWVANINYDGASTYYLDSLKSRFIISRDNAKNILYLQMSSLKSEDTATYYCARGLTWDFDVWGTGTTVTVSS VL: DIVMTQSHKFMSPSVGDRVSITCKASQDVDTAVAWYQQKPGQSPKLLIYLASTRHTGVPDRFTGSGSGTDFTLTISNVQSEDLADYFCQQYSRFPLTFGAGTKLELKR | 4.08 nM | 0.000646 s⁻¹ | 159000 M⁻¹ s⁻¹

Results, then the binder that gave them:

Kd | koff | kon | Binder
0.445 nM | 4.49e-05 s⁻¹ | 101000 M⁻¹ s⁻¹ | Mu_10F07_VH (SEQ ID NO: 39)_I101A (antibody, V domains shown) VH: DVKLVESGEGLVKPGGSLKLSCAASGFTFSSYAMSWVRQTPEKRLEWVTYISSGGDYFYYADTVKGRFTISRDNARNTLYLQMSSLKSEDTAMYYCTRDPATGTFAYWGQGTLVTVSA VL: DIQMTQTTSSLSASLGDRVTISCRASQDITNYLNWYQQKPDGTVKLLIYYTSTLHSGVPSRFSGSGSGTDFSLTISNLEQEDIATYFCQQGHMLPWTFGGGTKLEIKR
0.202 nM | 6.08e-05 s⁻¹ | 301000 M⁻¹ s⁻¹ | Mu_19F07_VH (SEQ ID NO: 47)_Y33A (antibody, V domains shown) VH: EVKLVESEGGLVQPGSSMKLSCTASGFTFSDYAMAWVRQVPEKGLEWVANINYDGSSTYYLDSLKSRFIISRDNAKNILYLQMSSLKSEDTATYYCARGLTWDFDVWGTGTTVTVSS VL: DIVMTQSHKFMSPSVGDRVSITCKASQDVDTAVAWYQQKPGQSPKLLIYLASTRHTGVPDRFTGSGSGTDFTLTISNVQSEDLADYFCQQYSRFPLTFGAGTKLELKR
0.359 nM | 0.000116 s⁻¹ | 324000 M⁻¹ s⁻¹ | Mu_19F07_VH (SEQ ID NO: 47)_Y59A (antibody, V domains shown) VH: EVKLVESEGGLVQPGSSMKLSCTASGFTFSDYYMAWVRQVPEKGLEWVANINYDGSSTAYLDSLKSRFIISRDNAKNILYLQMSSLKSEDTATYYCARGLTWDFDVWGTGTTVTVSS VL: DIVMTQSHKFMSPSVGDRVSITCKASQDVDTAVAWYQQKPGQSPKLLIYLASTRHTGVPDRFTGSGSGTDFTLTISNVQSEDLADYFCQQYSRFPLTFGAGTKLELKR
0.164 nM | 4.8e-05 s⁻¹ | 293000 M⁻¹ s⁻¹ | Mu_19F07_VL (SEQ ID NO: 49)_L50A (antibody, V domains shown) VH: EVKLVESEGGLVQPGSSMKLSCTASGFTFSDYYMAWVRQVPEKGLEWVANINYDGSSTYYLDSLKSRFIISRDNAKNILYLQMSSLKSEDTATYYCARGLTWDFDVWGTGTTVTVSS VL: DIVMTQSHKFMSPSVGDRVSITCKASQDVDTAVAWYQQKPGQSPKLLIYAASTRHTGVPDRFTGSGSGTDFTLTISNVQSEDLADYFCQQYSRFPLTFGAGTKLELKR
0.139 nM | 4.35e-05 s⁻¹ | 312000 M⁻¹ s⁻¹ | Mu_19F07_VH (SEQ ID NO: 47)_W102A (antibody, V domains shown) VH: EVKLVESEGGLVQPGSSMKLSCTASGFTFSDYYMAWVRQVPEKGLEWVANINYDGSSTYYLDSLKSRFIISRDNAKNILYLQMSSLKSEDTATYYCARGLTADFDVWGTGTTVTVSS VL: DIVMTQSHKFMSPSVGDRVSITCKASQDVDTAVAWYQQKPGQSPKLLIYLASTRHTGVPDRFTGSGSGTDFTLTISNVQSEDLADYFCQQYSRFPLTFGAGTKLELKR
0.156 nM | 5.09e-05 s⁻¹ | 326000 M⁻¹ s⁻¹ | Mu_19F07_VH (SEQ ID NO: 47)_F104A (antibody, V domains shown) VH: EVKLVESEGGLVQPGSSMKLSCTASGFTFSDYYMAWVRQVPEKGLEWVANINYDGSSTYYLDSLKSRFIISRDNAKNILYLQMSSLKSEDTATYYCARGLTWDADVWGTGTTVTVSS VL: DIVMTQSHKFMSPSVGDRVSITCKASQDVDTAVAWYQQKPGQSPKLLIYLASTRHTGVPDRFTGSGSGTDFTLTISNVQSEDLADYFCQQYSRFPLTFGAGTKLELKR
